Here are results for 13 molecules from US8685890 (Bicycle, dated 2014).

Experiment [1] has as its target kallikrein (UniProt P03952 20-638, limits assumed). The experiment can be described thus: cell-based or functional assay.
In experiment [2] the target is T1, MDM2 (res 2-125) (UniProt Q00987 2-125).
T1 construct: range 2-125
The experiment can be described thus: fluorescence anisotropy titration, MDM2 (res 2-125) titrated into the peptide, quadratic 1:1 fit with linear drift term; unit from the axis MDM2, uM. On the technique in general: Polarisation of emitted light reports the rotation of a fluorescent probe.

In experiment [3] the target is T2, Mdm2 (construct limits not stated) (UniProt Q00987 2-125, limits assumed). The experiment can be described thus: fluorescence anisotropy (FIG. 3); PK15L1-PEP48L1 bicycle (FIG. 3).
T2 sequence (Q00987 2-125 limits assumed): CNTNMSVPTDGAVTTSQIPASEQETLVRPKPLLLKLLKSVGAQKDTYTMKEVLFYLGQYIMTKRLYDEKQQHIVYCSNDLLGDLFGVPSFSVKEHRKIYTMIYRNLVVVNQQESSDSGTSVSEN
Experiment [4] addresses T2, Mdm2 (construct limits not stated at …). As to the kind of experiment: method not given; affinity-matured Pep48T, estimated.
Experiment [5] has as its target T1, MDM2 (res 2-125). The experiment is described as described in Example 1 (method not retold).
For experiment [6], the target named is T1, MDM2 (res 2-125). As to the kind of experiment: fluorescence anisotropy (Example 1, retold as a range); lower end of range retold from Example 1.
In experiment [7] the target is T1, MDM2 (res 2-125). As to the kind of experiment: fluorescence anisotropy titration, intrinsic Trp fluorescence, PBS 5 mM DTT, 23 C.
Experiment [8] addresses T1, MDM2 (res 2-125). As to the kind of experiment: fluorescence anisotropy titration, λex=295 nm.
The target in experiment [9] is T1, MDM2 (res 2-125). As to the kind of experiment: fluorescence anisotropy titration, λex=280 nm; λex=280 nm.
Experiment [10] addresses T1, MDM2 (res 2-125). The experiment can be described thus: fluorescence anisotropy (Example 1, retold as a range); upper end of range retold from Example 1.
Experiment [11] has as its target T1, MDM2 (res 2-125). The experiment can be described thus: fluorescence anisotropy titration, MDM2 (res 2-125) titrated into the peptide, quadratic 1:1 fit with linear drift term; unit from the axis uM Mdm2.
For experiment [12], the target named is T3, bovine serum albumin (bovine, UniProt P02769 25-607).
T3 construct: also called BSA
T3 sequence (P02769 25-607 limits assumed): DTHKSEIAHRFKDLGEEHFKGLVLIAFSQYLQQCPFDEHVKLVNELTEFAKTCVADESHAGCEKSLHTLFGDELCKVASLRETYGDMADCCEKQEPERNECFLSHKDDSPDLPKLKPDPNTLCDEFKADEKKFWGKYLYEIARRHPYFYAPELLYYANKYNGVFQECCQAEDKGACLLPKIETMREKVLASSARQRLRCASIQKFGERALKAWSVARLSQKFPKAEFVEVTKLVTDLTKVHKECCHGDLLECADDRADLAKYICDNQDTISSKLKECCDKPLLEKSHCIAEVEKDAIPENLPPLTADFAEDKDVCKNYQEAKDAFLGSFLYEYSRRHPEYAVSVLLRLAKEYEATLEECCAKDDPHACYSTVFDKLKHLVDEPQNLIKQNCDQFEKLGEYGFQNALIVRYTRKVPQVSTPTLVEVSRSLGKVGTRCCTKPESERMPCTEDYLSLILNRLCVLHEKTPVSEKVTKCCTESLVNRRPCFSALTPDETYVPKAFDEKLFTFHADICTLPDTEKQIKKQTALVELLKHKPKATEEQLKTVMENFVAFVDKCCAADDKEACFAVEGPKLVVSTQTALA
The experiment can be described thus: fluorescence anisotropy, comparison of Kd.

For experiment [13], the target named is T3, bovine serum albumin. The experiment can be described thus: fluorescence anisotropy titration of BSA into peptide.
Experiment [14] addresses T3, bovine serum albumin. As to the kind of experiment: fluorescence anisotropy titration of BSA into 0.4 µM peptide.
In experiment [15] the target is T3, bovine serum albumin. The experiment can be described thus: fluorescence anisotropy titration of BSA into 200 nM peptide.
The target of experiment [16] is T3, bovine serum albumin. As to the kind of experiment: fluorescence anisotropy titration of BSA into 500 nM peptide.
Experiment [17] addresses T2, Mdm2 (construct limits not stated at …). As to the kind of experiment: fluorescence anisotropy titration of 18.8 µM Mdm2 into 500 nM peptide; data could not be fitted.

Values joined by “and” are separate entries in the source; they are usually repeats but may differ in a detail not shown here. Identical values can stand only once. Starred links: 1 amine or outer side, 2 acyl side, 3 side chain; linkers in the order of their positions; H or OH if unused. Positions of bridges follow the written chain, without caps; N, C: chain ends. No end group written: not given here. TBMB = c1c(C[*:1])cc(C[*:3])cc1C[*:2]

T1 sequence (Q00987 2-125 limits assumed): as the sequence (Q00987 2-125 limits assumed) above
kallikrein, sequence (P03952 20-638 limits assumed): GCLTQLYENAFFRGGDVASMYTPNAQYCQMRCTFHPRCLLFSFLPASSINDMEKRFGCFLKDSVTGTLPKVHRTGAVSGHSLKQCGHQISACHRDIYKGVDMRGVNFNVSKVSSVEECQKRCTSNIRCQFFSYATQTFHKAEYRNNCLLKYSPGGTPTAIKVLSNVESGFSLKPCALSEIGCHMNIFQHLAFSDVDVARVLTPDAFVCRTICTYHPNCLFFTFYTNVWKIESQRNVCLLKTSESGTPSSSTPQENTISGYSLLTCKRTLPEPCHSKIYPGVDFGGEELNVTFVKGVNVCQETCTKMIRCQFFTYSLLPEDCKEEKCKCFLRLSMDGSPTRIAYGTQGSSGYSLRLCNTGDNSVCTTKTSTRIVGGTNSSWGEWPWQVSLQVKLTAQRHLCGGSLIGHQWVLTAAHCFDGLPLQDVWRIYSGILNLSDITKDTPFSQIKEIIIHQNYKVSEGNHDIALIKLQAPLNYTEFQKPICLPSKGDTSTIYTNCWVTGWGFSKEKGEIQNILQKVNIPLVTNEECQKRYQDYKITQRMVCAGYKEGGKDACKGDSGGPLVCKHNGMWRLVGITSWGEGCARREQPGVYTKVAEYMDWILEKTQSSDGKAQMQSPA

B1: PK15L1-CG4L1 bicyclic (peptide)
peptide: ACSDRFRNCIFDLGFCG
HELM: PEPTIDE1{A.C.S.D.R.F.R.N.C.I.F.D.L.G.F.C.G}|CHEM1{[c1c(C[*:1])cc(C[*:3])cc1C[*:2]]}$PEPTIDE1,CHEM1,2:R3-1:R1|PEPTIDE1,CHEM1,9:R3-1:R2|PEPTIDE1,CHEM1,16:R3-1:R3$$$V2.0
SMILES: CC[C@H](C)[C@@H]1NC(=O)[C@@H]2CSCc3cc(cc(c3)CSC[C@@H](C(=O)NCC(=O)O)NC(=O)[C@H](Cc3ccccc3)NC(=O)CNC(=O)[C@H](CC(C)C)NC(=O)[C@H](CC(=O)O)NC(=O)[C@H](Cc3ccccc3)NC1=O)CSC[C@H](NC(=O)[C@H](C)N)C(=O)N[C@@H](CO)C(=O)N[C@@H](CC(=O)O)C(=O)N[C@@H](CCCNC(=N)N)C(=O)N[C@@H](Cc1ccccc1)C(=O)N[C@@H](CCCNC(=N)N)C(=O)N[C@@H](CC(N)=O)C(=O)N2
Take B1: the “IC50 for inhibition of kallikrein activity” value (“IC50 for inhibition” for short) in experiment [1] worked out at 200 nM.

B2: PK15L1-PEP48L1 bicyclic (peptide)
peptide: ACSDRFRNCVRFGWTCG
modifications: linker 2-9-16 via TBMB
notes: also called PK15L1-PEP48L1 bicyclic peptide; dual specific peptide comprising loops from PEP48 and PK15
In general, Kd refers to the equilibrium constant for the complex coming apart. B2: the Kd was found to be 1560 nM in experiment [2] and 1550 nM in experiment [3]. Moreover, the “IC50 for inhibition” value in experiment [1] was 11000 nM.

Turning to SGCVRFGWTCPTVMCGG (linker 3-10-15 via TBMB; not fully specified (N-terminus, C-terminus)) [Pep48T (affinity-matured Pep48 derivative, TBMB conjugate)], the dissociation constant Kd in experiment [4] is ~100 nM.

B3: CG4L1-PK15L1-PK15L2 tricyclic (peptide)
peptide: ALCIFDLGFCSDRFRNCPADE
HELM: PEPTIDE1{A.L.C.I.F.D.L.G.F.C.S.D.R.F.R.N.C.P.A.D.E}|CHEM1{[c1c(C[*:1])cc(C[*:3])cc1C[*:2]]}$PEPTIDE1,CHEM1,3:R3-1:R1|PEPTIDE1,CHEM1,10:R3-1:R2|PEPTIDE1,CHEM1,17:R3-1:R3|PEPTIDE1,PEPTIDE1,1:R1-21:R2$$$V2.0
SMILES: CC[C@H](C)[C@@H]1NC(=O)[C@@H]2CSCc3cc4cc(c3)CSC[C@H](NC(=O)[C@H](CC(N)=O)NC(=O)[C@H](CCCNC(=N)N)NC(=O)[C@H](Cc3ccccc3)NC(=O)[C@H](CCCNC(=N)N)NC(=O)[C@H](CC(=O)O)NC(=O)[C@H](CO)NC(=O)[C@H](CSC4)NC(=O)[C@H](Cc3ccccc3)NC(=O)CNC(=O)[C@H](CC(C)C)NC(=O)[C@H](CC(=O)O)NC(=O)[C@H](Cc3ccccc3)NC1=O)C(=O)N1CCC[C@H]1C(=O)N[C@@H](C)C(=O)N[C@@H](CC(=O)O)C(=O)N[C@@H](CCC(=O)O)C(=O)N[C@@H](C)C(=O)N[C@@H](CC(C)C)C(=O)N2
In the case of B3, in experiment [1], the “IC50 for inhibition” value worked out at 15000 nM.

B4: PEP48 bicyclic peptide (synthetic peptide of phage clone 48 conjugated to TBMB) (peptide)
peptide: H-SCVRFGWTCDNSWHGCKG-OH
modifications: linker 2-9-16 via TBMB
notes: measured in PBS with 5 mM DTT; also called peptide 48; PEP48L1-PEP48L2 bicyclic peptide
In the case of B4, the Kd is ~660 nM in experiment [5]; ≥ 500 nM in [6]; 250 to 750 nM in experiment [7]; 567 nM in experiment [8]; 760 nM in experiment [9]; ≤ 800 nM in [10]. Moreover, the Kd in experiment [11] was 760 nM and 568 nM.

B5: Fmoc-FGSGD-NH2 (peptide)
peptide: FGSGD
HELM: PEPTIDE1{[O=C(OCC1c2ccccc2-c2ccccc21)[*:2]].F.G.S.G.D.[am]}$$$$V2.0
SMILES: NC(=O)[C@H](CC(=O)O)NC(=O)CNC(=O)[C@H](CO)NC(=O)CNC(=O)[C@H](Cc1ccccc1)NC(=O)OCC1c2ccccc2-c2ccccc21
B5: in [12], the “fold tighter than the glycine variant (Fmoc-GGSGD-NH2)” value was 8 fold. Besides, the Kd in experiment [13] stood at 160 nM.

B6: Fmoc-FGGGD-NH2 (peptide)
peptide: FGGGD
HELM: PEPTIDE1{[O=C(OCC1c2ccccc2-c2ccccc21)[*:2]].F.G.G.G.D.[am]}$$$$V2.0
SMILES: NC(=O)[C@H](CC(=O)O)NC(=O)CNC(=O)CNC(=O)CNC(=O)[C@H](Cc1ccccc1)NC(=O)OCC1c2ccccc2-c2ccccc21
Take B6: the Kd in experiment [13] is 200 nM.

B7: Fmoc-WGSGD-NH2 (peptide)
peptide: WGSGD
HELM: PEPTIDE1{[O=C(OCC1c2ccccc2-c2ccccc21)[*:2]].W.G.S.G.D.[am]}$$$$V2.0
SMILES: NC(=O)[C@H](CC(=O)O)NC(=O)CNC(=O)[C@H](CO)NC(=O)CNC(=O)[C@H](Cc1c[nH]c2ccccc12)NC(=O)OCC1c2ccccc2-c2ccccc21
notes: also called Fmoc-Trp-GSGD
On to B7, for which the “fold tighter than Fmoc-FGSGD-NH2” value in experiment [12] came to 3 fold. Besides, the Kd in [14] was ~60 nM.

B8: Fmoc-GGSGD-NH2 (peptide)
peptide: GGSGD
HELM: PEPTIDE1{[O=C(OCC1c2ccccc2-c2ccccc21)[*:2]].G.G.S.G.D.[am]}$$$$V2.0
SMILES: NC(=O)[C@H](CC(=O)O)NC(=O)CNC(=O)[C@H](CO)NC(=O)CNC(=O)CNC(=O)OCC1c2ccccc2-c2ccccc21
notes: also called the glycine variant
Take B8: binding in experiment [15] was characterised by a dissociation constant (Kd) of 1300 nM.

B9: PEP10 bicyclic peptide (synthetic peptide of phage clone 10 conjugated to TBMB) (peptide)
peptide: H-SCELWNPKCRLSPFECKG-OH
modifications: linker 2-9-16 via TBMB
notes: measured in PBS with 5 mM DTT; also called peptide 10
Consider B9, for which the Kd in experiment [7] is 250 to 750 nM; in [8], 267 nM; in [11], 268 nM.

B10: bicyclic Fmoc-WGGGA-PEP48L1-PK15L1 (peptide)
peptide: WGGGACVRFGWTCSDRFRNCG
HELM: PEPTIDE1{[O=C(OCC1c2ccccc2-c2ccccc21)[*:2]].W.G.G.G.A.C.V.R.F.G.W.T.C.S.D.R.F.R.N.C.G.[am]}|CHEM1{[c1c(C[*:1])cc(C[*:3])cc1C[*:2]]}$PEPTIDE1,CHEM1,7:R3-1:R1|PEPTIDE1,CHEM1,14:R3-1:R2|PEPTIDE1,CHEM1,21:R3-1:R3$$$V2.0
SMILES: CC(C)[C@@H]1NC(=O)[C@@H](NC(=O)[C@H](C)NC(=O)CNC(=O)CNC(=O)CNC(=O)[C@H](Cc2c[nH]c3ccccc23)NC(=O)OCC2c3ccccc3-c3ccccc32)CSCc2cc3cc(c2)CSC[C@H](NC(=O)[C@H]([C@@H](C)O)NC(=O)[C@H](Cc2c[nH]c4ccccc24)NC(=O)CNC(=O)[C@H](Cc2ccccc2)NC(=O)[C@H](CCCNC(=N)N)NC1=O)C(=O)N[C@@H](CO)C(=O)N[C@@H](CC(=O)O)C(=O)N[C@@H](CCCNC(=N)N)C(=O)N[C@@H](Cc1ccccc1)C(=O)N[C@@H](CCCNC(=N)N)C(=O)N[C@@H](CC(N)=O)C(=O)N[C@H](C(=O)NCC(N)=O)CSC3
notes: also called Fmoc PEP48L1-PK15L1 bicyclic; FmocPEP48L1-PK15L1
Consider B10, for which the dissociation constant (Kd) in experiment [16] is 62 nM; in experiment [17], < 1000 nM. For the same molecule, the “IC50 for inhibition” value in experiment [1] is 17000 nM.

For ACSDRFRNCPADEALCG (linker 2-9-16 via TBMB) [PK15L1-PK15L2 bicyclic], the “IC50 for inhibition” value in [1] amounted to 13 nM.

With H-ALCIFDLGFCSDRFRNCPADE-OH (linker 3-10-17 via TBMB) [X-CG4L1-PK15L1-Y bicyclic], in [1], the “IC50 for inhibition” value was 15000 nM.
